Measurements reported in article PMC3458019.

Experiment: mouse liver sections 10 min after injection, anti-FX/CD68 staining
Conditions: glycan lost; control: pd-FX

**Q.** For Factor X (FX): PNGase F (N-degly-FX), which localisation_or_trafficking is on record?
**A.** changes, the localization of FX was predominantly to hepatocytes
